Experimental data taken from publication PMC5499601 (Nucleic Acids Research, 2017).

Assays:
Assay in all cases: EMSA
BsSpo0J H57E = biological target: T1, BsSpo0J H57E (UniProt P26497 1-282, H57E)
T1 sequence: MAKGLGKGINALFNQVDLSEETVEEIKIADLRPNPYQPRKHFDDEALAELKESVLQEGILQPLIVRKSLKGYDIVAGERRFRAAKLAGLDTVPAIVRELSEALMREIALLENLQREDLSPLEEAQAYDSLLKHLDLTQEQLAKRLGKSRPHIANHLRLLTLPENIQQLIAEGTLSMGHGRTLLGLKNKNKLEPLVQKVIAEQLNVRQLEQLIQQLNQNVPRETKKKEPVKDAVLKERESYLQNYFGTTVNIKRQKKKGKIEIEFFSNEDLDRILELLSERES

BsSpo0J E52R = biological target: T2, BsSpo0J E52R (UniProt P26497 1-282, E52R)
T2 sequence: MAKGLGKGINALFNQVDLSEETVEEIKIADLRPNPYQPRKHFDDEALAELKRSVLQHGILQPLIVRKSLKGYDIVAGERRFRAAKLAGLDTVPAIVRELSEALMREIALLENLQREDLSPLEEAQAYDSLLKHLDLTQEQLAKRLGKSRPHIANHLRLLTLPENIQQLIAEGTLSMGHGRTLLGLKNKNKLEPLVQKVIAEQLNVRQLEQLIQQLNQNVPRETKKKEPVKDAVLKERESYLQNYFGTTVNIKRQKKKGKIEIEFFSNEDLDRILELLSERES

BsSpo0J Q140A = biological target: T3, BsSpo0J Q140A (UniProt P26497 1-282, Q140A)
T3 sequence: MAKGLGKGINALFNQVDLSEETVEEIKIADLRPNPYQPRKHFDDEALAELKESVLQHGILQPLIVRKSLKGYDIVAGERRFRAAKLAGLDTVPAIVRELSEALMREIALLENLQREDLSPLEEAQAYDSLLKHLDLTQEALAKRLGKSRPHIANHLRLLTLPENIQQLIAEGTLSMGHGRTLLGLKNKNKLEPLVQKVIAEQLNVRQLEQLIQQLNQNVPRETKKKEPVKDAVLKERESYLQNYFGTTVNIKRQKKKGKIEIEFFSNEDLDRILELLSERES

BsSpo0J R105A = biological target: T4, BsSpo0J R105A (UniProt P26497 1-282, R105A)
T4 sequence: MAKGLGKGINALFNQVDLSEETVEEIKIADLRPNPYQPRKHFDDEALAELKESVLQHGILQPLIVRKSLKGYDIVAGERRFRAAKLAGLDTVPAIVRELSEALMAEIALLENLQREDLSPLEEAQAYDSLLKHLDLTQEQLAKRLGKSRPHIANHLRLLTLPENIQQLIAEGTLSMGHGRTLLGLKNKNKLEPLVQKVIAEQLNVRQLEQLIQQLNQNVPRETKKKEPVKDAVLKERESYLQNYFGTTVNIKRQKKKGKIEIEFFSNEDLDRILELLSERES

BsSpo0J R80A = biological target: T5, BsSpo0J R80A (UniProt P26497 1-282, R80A)
T5 sequence: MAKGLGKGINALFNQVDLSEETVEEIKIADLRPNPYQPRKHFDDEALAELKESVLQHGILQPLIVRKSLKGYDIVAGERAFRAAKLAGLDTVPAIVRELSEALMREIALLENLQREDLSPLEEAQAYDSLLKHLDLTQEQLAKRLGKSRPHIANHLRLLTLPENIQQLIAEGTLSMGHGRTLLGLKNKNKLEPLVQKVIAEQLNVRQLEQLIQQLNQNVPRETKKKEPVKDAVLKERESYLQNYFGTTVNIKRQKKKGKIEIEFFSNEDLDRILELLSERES

BsSpo0J WT = biological target: T6, BsSpo0J WT (UniProt P26497 1-282)
T6 sequence: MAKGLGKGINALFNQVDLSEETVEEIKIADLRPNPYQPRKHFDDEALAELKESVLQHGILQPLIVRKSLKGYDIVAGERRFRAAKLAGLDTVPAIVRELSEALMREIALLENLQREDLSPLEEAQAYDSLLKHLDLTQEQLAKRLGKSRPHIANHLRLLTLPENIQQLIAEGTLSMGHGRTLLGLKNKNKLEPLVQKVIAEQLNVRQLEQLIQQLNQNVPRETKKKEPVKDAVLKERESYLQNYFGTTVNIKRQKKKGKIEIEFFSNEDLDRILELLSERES

BsSpo0J F81A = biological target: T7, BsSpo0J F81A (UniProt P26497 1-282, F81A)
T7 sequence: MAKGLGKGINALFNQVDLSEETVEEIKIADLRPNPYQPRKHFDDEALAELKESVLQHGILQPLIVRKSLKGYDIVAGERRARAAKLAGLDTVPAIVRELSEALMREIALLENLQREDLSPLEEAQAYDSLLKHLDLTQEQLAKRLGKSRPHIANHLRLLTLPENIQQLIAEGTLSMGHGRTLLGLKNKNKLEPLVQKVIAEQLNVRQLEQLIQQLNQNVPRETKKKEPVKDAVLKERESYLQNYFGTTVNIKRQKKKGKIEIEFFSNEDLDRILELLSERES

BsSpo0J R39A = biological target: T8, BsSpo0J R39A (UniProt P26497 1-282, R39A)
T8 sequence: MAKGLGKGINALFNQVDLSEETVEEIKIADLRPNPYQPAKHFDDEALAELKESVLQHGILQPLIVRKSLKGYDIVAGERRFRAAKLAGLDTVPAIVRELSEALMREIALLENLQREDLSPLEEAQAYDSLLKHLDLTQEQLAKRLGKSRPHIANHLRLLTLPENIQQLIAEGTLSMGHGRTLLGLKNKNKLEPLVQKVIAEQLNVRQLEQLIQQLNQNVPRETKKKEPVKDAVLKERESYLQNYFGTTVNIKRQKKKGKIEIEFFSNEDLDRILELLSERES

BsSpo0J R105E = biological target: T9, BsSpo0J R105E (UniProt P26497 1-282, R105E)
T9 sequence: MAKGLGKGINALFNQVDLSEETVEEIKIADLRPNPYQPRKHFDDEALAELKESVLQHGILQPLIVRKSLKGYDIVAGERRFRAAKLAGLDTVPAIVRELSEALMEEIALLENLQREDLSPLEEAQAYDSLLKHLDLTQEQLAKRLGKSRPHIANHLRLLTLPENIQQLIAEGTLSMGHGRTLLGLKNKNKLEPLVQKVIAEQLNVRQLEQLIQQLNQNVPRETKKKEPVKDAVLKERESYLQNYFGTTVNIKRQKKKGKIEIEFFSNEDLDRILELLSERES

Measured: binding result

B1: 39-bp parS (dsDNA)
DNA 1: CAGTTGAATCAGAATGTTCCACGTGAAACAAAGAAAAAA
DNA 2: TTTTTTCTTTGTTTCACGTGGAACATTCTGATTCAACTG
binds: BsSpo0J H57E | BsSpo0J E52R | BsSpo0J Q140A | BsSpo0J R105A | BsSpo0J R80A | BsSpo0J WT | BsSpo0J F81A | BsSpo0J R39A | BsSpo0J R105E
